PMC3672029 (BMC Structural Biology, 2013)

Molecular target: the molecule itself
Test: crystal structure; Se-Met MJ0391 (28 mg/mL), sitting-drop vapor diffusion at 293 K, 50%(v/v) PEG-400, 0.1 M MES pH 6.0; MAD, refined at 2.3 Å; two NCS molecules in the asymmetric unit, tetramer generated by the crystallographic 2-fold axis

B1: hypothetical protein MJ0391 from Methanocaldococcus jannaschii (putative CbiT) (enzyme, Methanocaldococcus jannaschii DSM 2661)
chain: MKYMIPDEEFIRREGVPITKEEIRAVSIGKLNLNKDDVVVDVGCGSGGMTVEIAKRCKFVYAIDYLDGAIEVTKQNLAKFNIKNCQIIKGRAEDVLDKLEFNKAFIGGTKNIEKIIEILDKKKINHIVANTIVLENAAKIINEFESRGYNVDAVNVFISYAKKIPSGHMFLAKNPITIIKAVR
modifications: selenomethionine in place of methionine (Se-Met protein; Mse4 and Mse169 are printed)
notes: MJ0391 protein, putative CbiT (cobalt-precorrin-7 C15-methyltransferase / C12-decarboxylase), Methanocaldococcus jannaschii DSM 2661; gene amplified from genomic DNA and cloned into pET-21a; 183 amino acid residues and 21 kDa per monomer; residues 1-3 are not seen in the final model
stoichiometry N: 4
